± gives the uncertainty stated by the source.
Assay: amyloid nucleation score (Sup35N fusion, yeast selection) (log enrichment); library NNK1; higher = more nucleation; inactive = no reads after selection
Outline: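 Sup35N fusions to peptides of 20 random codons were expressed in psi-negative yeast, induced 24 hours with 100 μM copper sulfate, and grown 7 days at 30°C on medium lacking adenine and uracil. Input and output plasmid inserts were sequenced by Illumina. The nucleation score is the DiMSum log enrichment of output over input reads, centred on the mode score of non-aggregating sequences. Sequences with under 100 input reads were excluded.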

Row | Substance | amyloid nucleation score
1 | IRGLRVLHSVFLALLVCKNL | -0.136 ± 0.59
2 | GRLTLSRGRCCQGSLNTVYP | 0.007 ± 0.75
3 | YCYYYVNTCVV | 2.07 ± 0.53
4 | TSLVVVSYMVTL | 1.93 ± 0.42
5 | DFPVAIVDLRVCWSYLL | 0.526 ± 0.68
6 | IPGTPMT | inactive
7 | GASCTLISCLLLLHSAWSLS | 0.237 ± 0.59
8 | CIGRCMWI | 1.81 ± 0.61
9 | WNLATMVADRSPRNKLWTRP | 0.397 ± 0.97
10 | SLLNRVGLWRRSSLCLMTGC | 0.538 ± 0.26
11 | ESLRDRARWGNCMQILICSL | -0.055 ± 0.55
12 | LPSNFCVKLSSTYYQVFG | -2.37 ± 1.8
13 | RTFGYGHHIAGGCRDYRVYR | -0.373 ± 0.62
14 | SYFWYCGPSDDYNKPSCSMW | -0.441 ± 0.8
15 | GILVCLNYLGLFVVYHGFVW | 1.33 ± 0.56
16 | LVPPGSYRSCLSHGRNCYSC | -0.203 ± 0.46
17 | MVWSQVQLRIGVMVM | -0.562 ± 0.4
18 | MGNLATRWFQR | -0.037 ± 1.4
19 | LTAIFSRIFNI | -0.997 ± 1.4
20 | CICLDTSGSVLYSLCTDCGL | 0.871 ± 0.69
21 | VDDICIIVANSAGRDEQMSM | 1.16 ± 0.56
22 | FPYGSVIVVFVDFWYRLSSV | -0.343 ± 0.34
23 | CYEEPRMPNFFAVFYNSMLE | 0.144 ± 0.41
24 | GVFRLMDRNNI | 0.653 ± 0.61
25 | KKGVIGKG | -2.31 ± 1.6

Row | Substance | amyloid nucleation score
26 | GRTFVHSLWACNNSYCSL | 6.85 ± 0.088
27 | FMLVMFYWIYFNYSNVFRD | -0.669 ± 0.78
28 | SSSVVSV | 0.102 ± 0.33
29 | FSSICSRMEEGMTE | 0.001 ± 0.34
30 | GAIDRGCVDLARTCSLGLTG | 0.508 ± 0.56
31 | HESNMSMYYERYMLLSRNGS | 0.269 ± 0.23
32 | DGGLCFLSMTTIIGGDTLDR | 0.018 ± 0.34
33 | SQFYVLVIWLSCALSMGSSI | -0.04 ± 0.45
34 | SVIRDWLSGACSGTTEGRRT | -0.295 ± 0.43
35 | CNCAKSNVRCLFLFFDGQTR | 0.775 ± 0.92
36 | LPVFELSHTHSVKSLDGNGQ | -0.308 ± 0.33
37 | YKGWYFFYVCFSKLSIGS | -0.305 ± 0.72
38 | HDPDPVDYGCGWVSVSCGVA | 0.819 ± 0.82
39 | LGISPVSTGKKVNEDVYSGF | 0.618 ± 0.79
40 | HRSTVAKSTRKLPGICSVFW | 0.845 ± 0.8
41 | LCPGNMLLLITDQYSNWEEI | 0.068 ± 0.3
42 | RHVYW | 0.551 ± 0.39
43 | LRYLGMMVRREKIEVINLNY | 0.329 ± 1.4
44 | HWCCIKSVGCIWIRKSVTRC | 0.204 ± 0.43
45 | LSSPLLS | 0.66 ± 0.44
46 | IISRLCLQLPATRT | 1.21 ± 0.67
47 | GHSRSSGLLKKFCVKSRQDA | 0.234 ± 0.66
48 | HTGIIVKEVAQL | -0.507 ± 1.9
49 | SLSRCMIYDYR | inactive
50 | LYFWFVCNFAEIDFTITL | 3.05 ± 0.097

Row | Substance | amyloid nucleation score
51 | CDGRW | 0.186 ± 0.3
52 | FSDNRASPESKPQCVTGRRD | 0.669 ± 0.31
53 | DWCYYKRADRRTSSESSRAG | 0.333 ± 0.99
54 | LREECKVAWYLNGDCVVYCK | inactive
55 | HMVFQVKFWTNHRQVFSLPY | 2.91 ± 0.14
56 | DFLKGLFIRFRKSNFE | -1.11 ± 1.7
57 | FCLYISTIDID | 0.556 ± 0.59
58 | DLFLRYSLAGYYAMESPADS | 0.331 ± 0.33
59 | DTGGLYLERARQFKASMFLR | 0.229 ± 0.42
60 | SLHCLMFVCSFRVSFEDWGE | 4.77 ± 0.13
61 | GKCVTWQASCLQCSKSNWYQ | 0.995 ± 0.81
62 | KYDRNFNTRWGTKDVWTLAD | -0.065 ± 0.57
63 | PWADVR | 0.721 ± 0.38
64 | GVLRSSTSTVRGSCAGFHRL | 0.29 ± 0.43
65 | FVKFVTSEAFDHVLRTNWN | inactive
66 | TFTGDKIPIYSGVTVMASGM | 0.715 ± 0.84
67 | NILCTLPSIGILSAI | -0.249 ± 0.37
68 | QKYPPRGNRFSLCRITVSCF | 0.22 ± 0.89
69 | RWIFSSWLLDGILGERCQTV | -0.484 ± 1.1
70 | GLCDNHINVVVVS | 0.788 ± 0.81
71 | ITMSYMSAKCVNWVVWACRL | 0.286 ± 0.31
72 | YNCWSSLNFYNPIFLRTLLG | 3.46 ± 0.21
73 | FGYVDPRQCDISEHLPLSTV | -0.345 ± 0.61
74 | LNTQVRVGDKVCLRIFARLL | 0.944 ± 0.9
75 | FVSVWDILL | -0.049 ± 0.27

Row | Substance | amyloid nucleation score
76 | IYMVGAEPVRERDIVFVPTL | 1.24 ± 0.98
77 | PYLVVVTHMAMASHWDLLLP | 0.25 ± 0.41
78 | CSSALGIMKWTRIYVCRGRG | 1.6 ± 0.24
79 | ASNTANIPYGII | 0.489 ± 0.32
80 | GEIGKKNY | 1.2 ± 0.35
81 | NLVAAYRY | 0.146 ± 0.45
82 | MMNVTVKRFRLDQHRLIDCA | 0.383 ± 0.34
83 | NNRNQAMKVYNLVSLIEAKR | -0.218 ± 1
84 | VMFPGKQHT | 0.012 ± 0.91
85 | FGSSVSAVNFRVV | -0.448 ± 0.4
86 | VLSYL | -0.248 ± 0.38
87 | SLYAQVCWRSVEFYPRLFPE | 2.26 ± 0.12
88 | SAGAYGVRGRGSTLMVVFEW | -0.066 ± 0.54
89 | IVSNDKWHMWLNRL | -0.022 ± 0.24
90 | GYMSKLEYLPTQLYLLSLRE | 0.85 ± 0.44
91 | YSYSEGSLYQCSVSVV | 0.601 ± 0.7
92 | RVLRQMKSIC | -0.44 ± 0.83
93 | GDELKRVWYLGTLSRMRGTE | -0.574 ± 0.62
94 | YREGHHPGWTMVKMMRTQVP | 0.26 ± 0.6
95 | RGRRDAGGYRSKSFLGAWGV | 0.837 ± 0.21
96 | GSHYP | 0.586 ± 0.56
97 | CVNKPLNGHLANMSWRGY | 1.15 ± 0.57
98 | RYCVHIWRCDSLNHHN | 0.349 ± 0.41
99 | QRKYNDLFWLTSPFSQSMWM | 0.997 ± 1.1
100 | LQKFMLV | 0.638 ± 0.53

Row | Substance | amyloid nucleation score
101 | DNWSMDVLFLWMASLGNKYR | inactive
102 | AENITGWVVPIVVTLTASAR | -0.163 ± 0.29
103 | LYLEGINVFSVMLHEVLHTG | -0.052 ± 0.43
104 | YRSYTRNWTLTIPGCTLRSL | -1.93 ± 2.7
105 | ISINHVTCRLVFETGKWRWG | 3.45 ± 0.086
106 | SVLKSITPNGPLLFSYVCSI | -1.56 ± 0.58
107 | GSHNAR | 0.086 ± 0.97
108 | GWQDSLYLYYFTKFCRNQGG | -0.559 ± 0.46
109 | LLSRFRNCNKFDVRQSLRQN | 5.328 ± 0.051
110 | LDFRGMALENKVLDFRVCSV | 0.658 ± 0.3
111 | YSGPGAGFGGLLCIGNAQNL | -0.108 ± 0.62
112 | YTVPQSLSLLCSAYLILLDA | 0.561 ± 0.43
113 | HIGIWTIPSRKEGR | inactive
114 | TTFVSASSMRRYRCLSLGAC | 0.659 ± 0.85
115 | HRSYHYMLLHTLEDRCRKN | inactive
116 | EPSGLLFSTLGTSTYGYIQF | 2.27 ± 0.11
117 | VWFPKTDTGVTS | 0.428 ± 0.34
118 | RSCITESRRHIWRTGMVEKW | 0.716 ± 0.48
119 | SYNMTITACSNGFPEQRDT | 0.062 ± 0.73
120 | SVMAGSYITPVRMRKKKLFV | inactive
121 | GFKRRYCDNISAIHPDSGCK | inactive
122 | WYIVGSFTGITLVVNLALNL | inactive
123 | VTWVWFGVLVCFRRDGTLTY | 0.676 ± 0.85
124 | VNHTKPVDILHC | 0.521 ± 0.31
125 | LNGWIVEGLNNADLTRRRWV | 0.235 ± 0.6

Row | Substance | amyloid nucleation score
126 | CSLSETFPKVYFMWTQRSYV | -1.36 ± 2.4
127 | LANLAVHLLGQGETCIQMFL | 1.76 ± 0.4
128 | YFLLLRFY | 0.094 ± 0.44
129 | LSIWFFVYVLVG | 0.043 ± 0.78
130 | IISTWSYGSES | 2.43 ± 0.14
131 | MYFFGQYVCYYWEH | 7.381 ± 0.058
132 | VIIYLMARSLKVAH | 0.453 ± 0.38
133 | YSYNYGWTVAEELYNRCIGA | 0.266 ± 0.36
134 | RRGAKRSLWLIRNLWWDKSK | inactive
135 | FGICKYFNRFVMNIRSVDES | -0.618 ± 0.52
136 | NHIDGVIGY | 0.083 ± 0.61
137 | VSEIN | 2.23 ± 0.57
138 | LYRWCGPCYLIWGVSWS | -0.199 ± 0.45
139 | VDLISWLVYEKVMSRMNIYN | -0.001 ± 0.4
140 | RSSWKVLKRFRVVRERHEIT | 0.257 ± 1.1
141 | CFEYFY | -0.664 ± 0.32
142 | SLFKRILYHVSGFRYCCTSV | -1.01 ± 1
143 | LAHLCINIVSKCSNSWTIGT | 0.55 ± 0.57
144 | FLQNMSVILTIMNDIKIMED | 6.161 ± 0.047
145 | CTVMDRLLTQEPTNRRWSRY | 0.06 ± 0.84
146 | SMQQVSTSVQKVMDAYHWGW | 0.554 ± 0.79
147 | SELEYPTMGVSVVRLCSSSG | 0.1 ± 0.48
148 | DNAYDRVGTQGSAWFCGDCL | -0.655 ± 0.64
149 | SHYSSIVYGAMEDSGL | -1.6 ± 2.4
150 | LDRLMESGDFGWKYIMG | inactive

Row | Substance | amyloid nucleation score
151 | YWCLRSLMV | inactive
152 | FSVRGYSNLSAEDFINLKVP | -0.522 ± 1.4
153 | FMHAGIYL | 0.043 ± 1
154 | DCQVAVPLRIVKANSVILCG | 0.26 ± 0.37
155 | FQMLF | -0.752 ± 0.7
156 | VIMPGRYVNLAHRLDACSVH | inactive
157 | GVCVKGKRWDAEGVLRNAYT | 1.41 ± 0.46
158 | GTHLYS | 0.78 ± 0.38
159 | RATCVFCYTICFSWPSVWTF | 3.5 ± 0.062
160 | SSERGTWIMVARVQSVTNNV | inactive
161 | EPTDYWRVY | inactive
162 | CRASFACERDNIS | 0.547 ± 0.31
163 | SKSGLGYTGHLLVREREVVV | 0.474 ± 1
164 | VCRVMTSLNEGKLSAECVLV | 0.594 ± 0.32
165 | LSTYTMLF | -0.168 ± 0.28
166 | ASHLIYCFEARASLILL | 0.686 ± 1.1
167 | SSRNSAAFLNHFDADRGLLP | 1.53 ± 0.14
168 | RIPRFLNSLSEYYYLDFHYG | 1.15 ± 0.23
169 | SSCNRRSHKP | -0.471 ± 0.54
170 | RILKMYTYVLTMADHVLNKS | 0.21 ± 0.2
171 | SCVLRLNMAYIIVVVNSLEC | inactive
